Laboratory results taken from the supplement of paper PMC12042874.
± gives the uncertainty stated by the source.

assay: amyloid nucleation score (Sup35N fusion, yeast selection) (log enrichment); library NNK3; higher = more nucleation; inactive = no reads after selection
In short: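 Nucleation score is defined as the DiMSum log enrichment of output over input reads, with centring on the mode score of non-aggregating sequences. A minimum of 100 input reads was required for each sequence. Reads came from Illumina sequencing of plasmid inserts from psi-negative yeast expressing Sup35N fused to peptides of 20 random codons, induced with 100 μM copper sulfate for 24 hours and grown 7 days at 30°C on medium lacking adenine and uracil.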

Row | Substance | amyloid nucleation score
1 | FIEVYCKMGCLRYLVWGWSD | inactive
2 | FIFAG | inactive
3 | FIGDVLGSINGKCHLEYLYF | inactive
4 | FIGLIVLILRVFGYDTMRYL | inactive
5 | FIHLMLNMRFWRNTFNMPHA | inactive
6 | FIHMCISFSGYFYDYCFNFN | inactive
7 | FILNRLTRIIWDF | inactive
8 | FILRDHRLSLSNCAMKCPQG | inactive
9 | FILRVFMA | inactive
10 | FINAVAIRMIILVSRTRPTF | 0.984 ± 0.12
11 | FINMKIKQTYMRVFFWICAV | inactive
12 | FIPGMQA | inactive
13 | FIRKSPWQRFDTHFGIIDFK | 0.778 ± 0.17
14 | FISHRARWISDESYIICHFV | -0.067 ± 1.1
15 | FISLWQPPRL | inactive
16 | FISSRLFTALLSRCNFHNRF | inactive
17 | FIVSNYKSFVLYHLLNRMLV | inactive
18 | FIYIRYPHRRS | inactive
19 | FIYYDRFVKPSPKQTVSFSA | inactive
20 | FKAWMSLKLSTRRLNSCVPR | inactive
21 | FKFGLQLIRCMDFHWMF | inactive
22 | FKGPVDCSVIV | inactive
23 | FKLTDLCC | inactive
24 | FKLVGDIYYQYVYALPRNKL | inactive
25 | FKRTTMCGDYAVYVTPGTSL | inactive
26 | FKSVIESTLMIETDY | inactive
27 | FKTKDIVRKDEANSHWSMSG | inactive

Row | Substance | amyloid nucleation score
28 | FKYLRCNNIIVCPVVMVHLT | 0.345 ± 0.22
29 | FLCRAVRDKNHDIGLCWELR | -0.488 ± 0.8
30 | FLDDSFVFGNRRRWAWGCRG | inactive
31 | FLDVFLEFSILIFPSVTFKC | inactive
32 | FLETV | inactive
33 | FLFRC | inactive
34 | FLFRRLGRSYYKYAV | inactive
35 | FLFSW | -0.483 ± 1.9
36 | FLFVCLSLIALTGADSLVQA | inactive
37 | FLGCNRV | inactive
38 | FLGSYSLTDRIRWVTFPLFQ | inactive
39 | FLHQGT | inactive
40 | FLIKSFWNMIVCEAGDCCKD | 1.75 ± 0.12
41 | FLKCGRSVPGV | inactive
42 | FLKLGDSGRVYLLCFLAQVS | inactive
43 | FLLIIHHST | -0.126 ± 0.6
44 | FLMFKIPDTARELHVNSGLG | inactive
45 | FLMVGKISKMFKQYNLLFH | inactive
46 | FLMVLSMDLYVKLLLGSYIN | inactive
47 | FLNTLFYHMGT | inactive
48 | FLPCRFHNSLTDND | inactive
49 | FLPRLSNIWPNFDSSEQLRY | inactive
50 | FLRLSMKLHNLWYLLGSLWS | inactive
51 | FLRRGCLFRQT | inactive
52 | FLSYLSSIPAPYLNGSAGTT | inactive
53 | FLTFHGC | inactive
54 | FLVCHDYAYETVG | inactive

Row | Substance | amyloid nucleation score
55 | FLVCSGSNVWTREASHGGGN | -0.188 ± 0.47
56 | FLVLFTL | inactive
57 | FLVLLKTCYDSRPWP | 1.72 ± 0.094
58 | FLVLTNHRGARVRASCVMDR | inactive
59 | FLWMSGSSGWLSTVVIGGSW | inactive
60 | FLYYATGHRIFLV | inactive
61 | FMDKLIESFTYCWCTFGYAH | inactive
62 | FMINSNNRFGISRRTLMSLT | inactive
63 | FMKSMVLYPDTVLFYFCLLH | inactive
64 | FMPHARASQQLPGGSHFLNL | inactive
65 | FMRDIKLTGGCGVNCAHLHA | inactive
66 | FMSSVM | inactive
67 | FMVSMIIESSAGTFFMLSLV | inactive
68 | FMYMMFERQLPMWDNELLH | -0.251 ± 0.66
69 | FNAKFFSQNMSVWCGVFM | 2.6 ± 0.078
70 | FNCLHIYWMM | 0.372 ± 0.42
71 | FNFFQCFRQNASTIFSSGML | inactive
72 | FNFFTKVASDHRNI | inactive
73 | FNFLPNGWRGKVHIGYYGNT | inactive
74 | FNGEGFSRQG | -0.457 ± 1.8
75 | FNIYCVGPNYATRGAGWVLL | 1.78 ± 0.095
76 | FNMYFCVIWLCDSFLIMCG | inactive
77 | FNPCRGCYETKFHVYRLSRL | 0.584 ± 0.28
78 | FNQFHFKCSFNQCCYLNQAA | inactive
79 | FNQQLSECVDVARELAGG | 1.99 ± 0.086
80 | FNSGCYT | inactive
